Data: patent publication US20240075137A1 (COMPUGEN, published 2024)
Read-outs that look alike come from different tables or passages of the source.

Assays:
[1] = target: T1, human PVRIG on cells (human, UniProt Q6DKI7 1-326); assay: flow cytometry, Jurkat cells
T1 construct: whole, on cells; over-expressed on HEK cells or endogenous on Jurkat and CD8 T cells; also called hPVRIG; HEK hPVRIG cells
T1 sequence (looked up): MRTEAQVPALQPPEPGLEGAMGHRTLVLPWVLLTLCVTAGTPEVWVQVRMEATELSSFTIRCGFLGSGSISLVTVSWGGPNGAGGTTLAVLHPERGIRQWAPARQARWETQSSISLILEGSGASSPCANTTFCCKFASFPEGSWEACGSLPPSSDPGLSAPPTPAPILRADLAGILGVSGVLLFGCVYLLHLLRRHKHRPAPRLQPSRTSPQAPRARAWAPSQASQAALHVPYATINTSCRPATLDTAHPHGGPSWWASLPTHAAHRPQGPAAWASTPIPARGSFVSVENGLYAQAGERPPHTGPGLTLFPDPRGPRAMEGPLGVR

[2] = target: T1, human PVRIG on cells; assay: flow cytometry, HEK hPVRIG cells
[3] = target: T1, human PVRIG on cells; assay: FACS, HEK hPVRIG cells (HEK OE)
[4] = target: T1, human PVRIG on cells; assay: FACS on Jurkat cells; column head 'Kd', unit nM from legend paragraph 75
[5] = target: T1, human PVRIG on cells; assay: FACS on HEK hPVRIG cells; column head 'Kd', unit nM from legend paragraph 75
[6] = target: T2, PVRIG (FACS-based competition assay of FIGS. 7 and 15) (Homo sapiens, UniProt Q6DKI7); assay: FACS-based competition assay of PVRIG blocking; format and competitor not given
T2 construct: made because the format of the assay is only described in U.S. Ser. No. 15/048,967; also called human PVRIG
T2 sequence (receptor, looked up): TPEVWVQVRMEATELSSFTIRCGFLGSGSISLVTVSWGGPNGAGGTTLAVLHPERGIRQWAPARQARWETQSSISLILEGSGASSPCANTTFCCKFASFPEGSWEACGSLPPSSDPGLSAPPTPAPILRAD

[7] = target: T2, PVRIG (FACS-based competition assay of …); assay: as above; remark: listed apart in the source
[8] = target: T3, Cyno TIGIT-His; assay: SPR (ProteOn), Cyno TIGIT-His
T3 construct: also called cyno TIGIT monomer (prepared in-house); C-terminal HIS-tagged cyno TIGIT ECD recombinant protein

[9] = target: T4, human TIGIT ECD with C-terminal polyhistidine tag (human, UniProt Q495A1 22-141); assay: SPR (ProteOn), Human TIGIT-His
T4 construct: in-house or Sino Biological; also called hTIGIT-HIS; human TIGIT-HIS
T4 sequence: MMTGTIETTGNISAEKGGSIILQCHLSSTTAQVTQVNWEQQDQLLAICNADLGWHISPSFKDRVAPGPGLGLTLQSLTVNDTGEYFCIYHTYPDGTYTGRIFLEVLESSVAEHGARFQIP

[10] = target: T4, human TIGIT ECD with C-terminal …; assay: SPR (ProteOn), mAb captured, human TIGIT injected; BM29 as hIgG4
[11] = target: T5, Mouse TIGIT-His (mouse, UniProt P86176); assay: SPR (ProteOn), mAb captured, mouse TIGIT monomer injected; BM29 as hIgG4
T5 construct: also called mouse TIGIT monomer (prepared in-house)
T5 sequence (soluble monomer with His tag, looked up): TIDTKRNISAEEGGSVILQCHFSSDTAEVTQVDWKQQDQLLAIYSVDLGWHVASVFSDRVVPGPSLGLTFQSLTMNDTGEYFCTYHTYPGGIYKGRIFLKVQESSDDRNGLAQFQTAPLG

[12] = target: T6, human TIGIT on cells (human, UniProt Q495A1 22-141); assay: FACS titration of AF647-labelled mAb on human effector memory CD8+ T cells, Donor 321
T6 construct: also called Expi293 human TIGIT over-expressing cells
T6 sequence: T4 sequence

[13] = target: T6, human TIGIT on cells; assay: FACS titration of AF647-labelled mAb on human effector memory CD8+ T cells, Donor 322
[14] = target: T6, human TIGIT on cells; assay: FACS titration of AF647-labelled mAb on human effector memory CD8+ T cells, Donor 334
[15] = target: T6, human TIGIT on cells; assay: FACS titration on human TIGIT OE Expi293 cells, binding site concentration; ± 95% CI; 'Fit: Excellent'
[16] = target: T7, cyno TIGIT on cells (cynomolgus macaque); assay: FACS titration on cyno TIGIT OE Expi293 cells, binding site concentration; ± 95% CI; 'Fit: Good/Excellent'
T7 construct: whole, on cells; also called Expi293 cyno TIGIT over-expressing cells

[17] = target: T6, human TIGIT on cells; assay: FACS blocking of human PVR-m2aFc binding to human TIGIT OE Expi293 cells; binding site concentration; n=1
[18] = target: T6, human TIGIT on cells; assay: FACS blocking of human PVR-m2aFc binding to human TIGIT OE Expi293 cells; binding site concentration; n=2
[19] = target: T1, human PVRIG on cells; assay: flow cytometry titration, Jurkat cells
[20] = target: T1, human PVRIG on cells; assay: flow cytometry titration, HEK hPVRIG cells
[21] = target: T8, cynomolgus PVRIG on cells (cynomolgus, UniProt A0A2K5WVV8 41-322); assay: flow cytometry titration, expi cPVRIG cells
T8 construct: whole, on cells; also called cPVRIG; expi cPVRIG cells
T8 sequence: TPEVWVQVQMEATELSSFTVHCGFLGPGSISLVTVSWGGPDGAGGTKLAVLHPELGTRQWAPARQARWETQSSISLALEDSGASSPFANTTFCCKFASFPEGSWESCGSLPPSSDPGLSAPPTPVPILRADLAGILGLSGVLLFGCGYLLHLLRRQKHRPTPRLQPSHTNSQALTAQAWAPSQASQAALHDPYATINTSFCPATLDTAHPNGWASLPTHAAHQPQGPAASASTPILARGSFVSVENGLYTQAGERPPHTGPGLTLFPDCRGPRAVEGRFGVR

[22] = target: T1, human PVRIG on cells; assay: FACS competition: PVRL2 mFc binding to HEK hPVRIG cells
[23] = target: T1, human PVRIG on cells; assay: FACS on Jurkat cells pre-incubated with Isotype (unconjugated)
[24] = target: T1, human PVRIG on cells; assay: FACS on Jurkat cells pre-incubated with CHA.7.518.1 (unconjugated)
[25] = target: T1, human PVRIG on cells; assay: FACS on Jurkat cells pre-incubated with CHA.7.538.1.2 (unconjugated)
[26] = target: T9, PVRIG Fc (UniProt Q6DKI7 41-171, limits assumed, biotinylated (Example 5)); assay: FACS competition: biotinylated PVRIG Fc (33 nM) binding to HEK cells with endogenous PVRL2
T9 construct: also called biotinylated PVRIG Fc protein; PVRIG-Fc-fusion protein
T9 sequence (looked up): T2 sequence (receptor, looked up)

[27] = target: T10, mPVRL2 HIS (mouse, UniProt P32507 32-351, limits assumed); assay: ELISA: soluble receptor Fc titrated on immobilized mPVRL2 HIS
T10 construct: also called mPVRL2 protein; Soluble PVRL2 HIS protein
T10 sequence (looked up): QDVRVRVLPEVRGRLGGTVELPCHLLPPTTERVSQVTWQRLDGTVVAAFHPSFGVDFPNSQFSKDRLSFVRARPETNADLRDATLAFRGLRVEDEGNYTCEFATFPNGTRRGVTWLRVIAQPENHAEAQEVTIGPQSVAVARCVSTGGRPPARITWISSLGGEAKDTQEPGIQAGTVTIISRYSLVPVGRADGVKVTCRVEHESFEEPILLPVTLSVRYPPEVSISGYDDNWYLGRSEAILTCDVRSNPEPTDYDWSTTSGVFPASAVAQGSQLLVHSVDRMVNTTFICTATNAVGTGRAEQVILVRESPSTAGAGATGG

T3 sequence (ECD with C-terminal His tag, as listed by the source): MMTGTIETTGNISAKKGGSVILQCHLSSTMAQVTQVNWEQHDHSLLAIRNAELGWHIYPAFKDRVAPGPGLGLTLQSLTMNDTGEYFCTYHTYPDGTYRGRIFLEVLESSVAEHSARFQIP

B1: CHA.7.518 (antibody, V domains shown)
VH: EVQLQQSGPELVKPGASVKISCKASGYTFTDYNINWVKQSHGKSLEWIGYIYPYIGGSGYNQKFKSKATLSADNPSSTAYMELRSLTSEDSAVYYCAREDKTARNAMDYWGQGTPVTVSS
VL: DIQMTQSPASLSVSVGETVTIICRVSENIYSNLAWYQQKQGKSPQLLVYEATNLAEGVPSRFSGSGSGTQYSLKINSLQSEDFGSYYCQHFWGTPYTFGGGTKLEIK
- fold higher affinity than CPA.7.021 [1]: ~13 fold
- fold higher affinity than CPA.7.021 [2]: ~8 fold
- EC50 [3]: 0.36 nM
- Kd [4]: 0.24 nM
- Kd [5]: 0.36 nM
- IC50 [6]: 23.1 nM
- IC50 [7]: 23.1 nM

B2: BM29 hIgG4 (antibody, V domains shown)
VH: QVHLQESGPGLVKPSETLSLTCTVSGGSVSSGIYYWSWIRQPPGKGLEWIGYIYYSGSTNYNPSLKSRVTISVDTSKNQFSLKLSSVTAADTAVYYCARDYYVSGNYYNVDYYFFGVDVWGQGTTVTVSS
VL: EIVLTQSPATLSLSPGERATLSCRASQSVSSYLAWYQQKPGQAPRLLIYDASNRATGIPARFSGSGSGTDFTLTISSLEPEDFAVYYCQQRSNWPPLFTFGPGTKVDIKR
notes: benchmark anti-human TIGIT antibody, human IgG4 with S241P; also called BM29-H4; US2016/0176963A1 Clone 22G2 as hIgG4
- Kd [8]: 1.54 nM
- Kd [9]: 0.011 nM
- Kd [10]: 0.015 nM
- binding result [11]: no binding (tested: 92.9 nM mouse TIGIT)
- Kd [12]: 0.88 nM
- Kd [13]: 0.91 nM
- Kd [14]: 0.59 nM
- Kd [15]: 1.53 nM
- Kd [16]: 1.67 nM
- IC50 [17]: 1 nM
- IC50 [18]: 0.5 nM

B3: CHA.7.538.1.2.H4(S241P) (antibody, human IgG4 S228P, kappa, V domains shown)
VH: QVQLVQSGAEVKKPGASVKVSCKASGYAFTNYLIEWVRQAPGQGLEWIGVINPGSGGIYYAQKFQGRVTMTADTSTSTVYMELSSLRSEDTAVYYCARSETHDTWFAYWGQGTLVTVSS
VL: DIQMTQSPSSLSASVGDRVTITCKASQSVRIAVAWFQQKPGKAPKALIYLASTRHTGVPSRFSGSGSGTDFTLTISSVQPEDFATYYCLQHWNYPYTFGQGTKLEIKR
notes: humanized, human IgG4 with S241P
- Kd [19]: 0.59 nM
- Kd [20]: 0.86 nM
- Kd [21]: 0.58 nM
- IC50 [22]: 2.53 nM
- % binding relative to maximum signal [23]: 100%
- % binding relative to maximum signal [24]: 32%
- % binding relative to maximum signal [25]: 7%
- IC50 [26]: 16.1 nM

B4: TIGIT Fc (Fc fusion, UniProt P86176 29-148, looked up)
fusion chain: T5 sequence (soluble monomer with His tag, looked up)
notes: receptor part of an Fc fusion; Soluble receptor Fc tested on immobilized mPVRL2 HIS
- binding result [27]: no binding (tested: about 200 nM)
